In the nanobody polyreactivity screen of Harvey et al. (2022):

assay: yeast display, Sf9 membrane polyspecificity reagent, FACS + sequencing; frameworks hold sequencing errors
Procedure, shortened: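 Polyreactivity labels are assigned by the sorting gate from which each nanobody was recovered. The gates were low and high (top ~1%), set on anti-HA fluorescence for expression and streptavidin fluorescence for reagent binding. Before sorting, galactose-induced (36–48 hours) yeast display cells were stained for 1 hour at 4 °C with 10% biotinylated, detergent-solubilized Sf9 membrane reagent.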

Sequence	polyreactivity (PSR sort gate)
QVQLVESGGGLVQAGGSLRLSCAASGFIFRSNAMGLYRQAPGKEREFVAAISSRGGSTTYEDSVKGRFTISRDNAKNTVYLQMNSLKPEDTAVYYCARDWYYYPQYRQRYYYWGQGTQVTVSS	high polyreactivity
QVQLVESGGGLVQAGGSLRLSCAASGFIFRSYAMGWYRQAPGKERELVAAITHTGTTYYADSVKGRFTISRDNAKNSVYLQMNSLKPEDTAVYYCNANYYRTHYVYWGQGTQVTVSS	high polyreactivity
QVQLVESGGGLVQAGGSLRLSCAASGFIFRSYAMGWYRQAPGKERELVAANSSSGGRTYYADSVKGRFTISRDNAKNTVYLQMNSLKPEDTAVYYCATSLYTDNSWDNYWGQGTQVTVSS	high polyreactivity
QVQLVESGGGLVQAGGSLRLSCAASGFIFRTYAMGWYRQAPGKERELVAAISGTTGSTYYADSVKGRFTISRDNAKYTVYLQMNSLKPEDTAVYFCAADYYWYIRYDYWGQGTQVTVSS	low polyreactivity
QVQLVESGGGLVQAGGSLRLSCAASGFIFRTYAMGWYRQAPGKERELVAAISRGGGTTYYADSVKGRFTISRDNAKNTVYFQMNSLKPEDTAFYYCAAYSQYLKRDYWGQGTQVTVSS	high polyreactivity
QVQLVESGGGLVQAGGSLRLSCAASGFIFRTYAMGWYRQEPGKERELVAAITYSAGSTYYADSVKGRFTISRDNAKNTVYLQMNSLKPEDTADYYCNVRKTWYGYSVTGRYDYWGQGTQVTVSS	low polyreactivity
QVQLVESGGGLVQAGGSLRLSCAASGFIFRTYSMGWYRQAPGKERELVAAISGTTGSTYYADSVKGRFTISRDNAKNTVYLQMNRLKPEDTAVYYCAADYYWYIRYDYWGQGTQVTVSS	low polyreactivity
QVQLVESGGGLVQAGGSLRLSCAASGFIFRVYAMGWYRQAPGKERELVAAMSYSGGSTYYADSVKGRFTISRDNAKNTVYLQMNSLKPEDTAVYYCAAESYVSRYPYGYWGQGTQVTVSS	high polyreactivity
QVQLVESGGGLVQAGGSLRLSCAASGFIFRVYTMGWYRQAPGKERELVAAISYRGGRTYYADSVKGRFTISRDNAKNTVYLQMNSQKPEDTAVYYCAADRVNREFDYWGQGTQVTVSS	high polyreactivity
QVQLVESGGGLVQAGGSLRLSCAASGFIFRWYAKGWYRQAPGKERELVATITRSGGSTYYADSVKGRFTSSRDNAKNTVYLQMNSLKPEDTAVYYCNAGYSYKYYYWGQGTQVTVSS	high polyreactivity
QVQLVESGGGLVQAGGSLRLSCAASGFIFRWYAMGWYRQAPGKERELVATITGGGSTYYADSVKGRFTISRDNAKNTVYLQMNSLKPEDTAVYYCNARQIWKYSVRDDYWGQGTQVTVSS	high polyreactivity
QVQLVESGGGLVQAGGSLRLSCAASGFIFRWYTMGWYRQAPGKERELVAAISWRSGSTSYADSVMGRFTISRDNAKNTVYFQMNSLKPEDSAGYYCNADYSSFWTSYDYWGQGTQVTVSS	high polyreactivity
QVQLVESGGGLVQAGGSLRLSCAASGFIFRYNAMGWYRQAPGKERELVARITSSGGTTYYADSVKGRFTISRDNAKNTVYLQMNSLKPEDTAVYYCAITWRKYYPPYYYWGQGTQVTVSS	high polyreactivity
QVQLVESGGGLVQAGGSLRLSCAASGFIFRYNAMGWYRQAPGKESELVAAISSSGTTNYADSVKGRFTISRDNAKNTVYLQMNSLKPEDTAVYYCAARRSYARRFKNSMEYWGEGTQVTVSS	high polyreactivity
QVQLVESGGGLVQAGGSLRLSCAASGFIFRYNAMGWYRQRPGKERELVAVITSGGRTYYADSVKGRFTISRDNAKNTVYLQMNSLKPEDTAFYYCNADSRHRRNYDYWGQGTQVTVSS	high polyreactivity
QVQLVESGGGLVQAGGSLRLSCAASGFIFRYYALGWYRQAPGKERELVAAISWRGGTTYYADSVKGRFTISRDNAKNTVYLQMQSLKPEDTAVYYCAADWQWDLGPYIYQVEYWGQGTLVTVSS	high polyreactivity
QVQLVESGGGLVQAGGSLRLSCAASGFIFRYYAMGRYRPAPGKERELVAAISKRGGGTYYADSVKGRFTISRDNAKNTVYLQMNSLKPEDTAVYYCKKDGGYGTGSSREYDSWGQGTQVTVSS	high polyreactivity
QVQLVESGGGLVQAGGSLRLSCAASGFIFRYYAMGWYRQAPGKERELVAAINASGGRTYYADSVKGRFTISRDNARNTVYFQMNSLKPEDSAVYYCAAYRSYQTFDYWGQGTQVTVSS	high polyreactivity
QVQLVESGGGLVQAGGSLRLSCAASGFIFRYYAMGWYRQAPGKERELVAAISYSGGSTYYADSVKGRFTISRDTAKNTVYLQMNSLKPEDTAVYYCAAVLRTRDHPQPNYVYWGQGTQVTVSS	high polyreactivity
QVQLVESGGGLVQAGGSLRLSCAASGFIFRYYAMGWYRQAPGKERELVARINKSGGYTYYADSVKGRFTISRDNAKNTVYLQMNSLKPEDTAVYYCNRVRVFSVPFDYWGQGTQVTVSS	high polyreactivity
QVQLVESGGGLVQAGGSLRLSCAASGFIFRYYAMGWYRQAPGNERELVAAISYSGGSTYYADSVKGRFTISRDNAKNTVYLQMNSLKPEDTAVYYGAAVLRTRDHPQPNYEYWGQGTQVTVSS	high polyreactivity

Sequence	polyreactivity (PSR sort gate)
QVQLVESGGGLVQAGGSLRLSCAASGFIFRYYARGWYRQAPGKERELVAAISSTGGSTSYADSVKGRFTISRDNAKNTVYLQLNSQKPEDTAVYDCAADYWIRRRTYGQLYRPYYYWGQGTQVTVSS	high polyreactivity
QVQLVESGGGLVQAGGSLRLSCAASGFIFRYYTMGWYRQAPGKERELVATITSGGSTYYADSVKGRFTISCDNAKNTVYLQMNSLKPEDTAVYYCAKVRDVLWRFNYWGQGTQVTVSS	high polyreactivity
QVQLVESGGGLVQAGGSLRLSCAASGFIFSAYSMGWYRPEPGKERELVAAISYSGGTTYYADSVKGRFTISRDNAKNTLYLQMNSLKPEDTAVYYCAAGVGYWGQGTQVTVSS	high polyreactivity
QVQLVESGGGLVQAGGSLRLSCAASGFIFSGNAMGWYILAPGKERELVAGIRSLGGTTSYADSVKGRFTISRDNAKNTVYLQMNSMKPEDTAVYYCAAGYGAEFDYWGQGTQVTVSS	low polyreactivity
QVQLVESGGGLVQAGGSLRLSCAASGFIFSGNAMGWYRQAPGKERELVAAISWSGTSTFYADSVKGRFTISRDNAKNTVYLQMNSLKPEDTAVYYCAAETYYSYWYRPHYDYWGQGTQVTVSS	low polyreactivity
QVQLVESGGGLVQAGGSLRLSCAASGFIFSGYAMGWYRQAPGKERELVAAITWSGSNTFYADSVKGRFTISRDNPKNTVYLQMNSLKPEDTAVYYCNGVSKYIRSDYYYWGQGTQVTVSS	high polyreactivity
QVQLVESGGGLVQAGGSLRLSCAASGFIFSGYAMGWYRQAPGKERELVASISWSGARTNYADSVKGRFTISRDNAKNTVYLQMNSLKPEDTAVYYCAAQVGRGYEVYPVYKYGYWGQGTQVTVSS	high polyreactivity
QVQLVESGGGLVQAGGSLRLSCAASGFIFSGYAMGWYRQAPGKEREVVATISRGGSTTYYADSVKGRFTISRDNAKNTVYLQKTSLKPEETGAYYCATVGYPYRPVYIRRPYRYNSWGQGTQVTVSS	high polyreactivity
QVQLVESGGGLVQAGGSLRLSCAASGFIFSGYNMGWYRQAPGKERELVAAITKRGGRTYYADSVKWRFTISRDNAKNTVYLQMNSLKPEDTAVYYCNVDVKVYSDETTDGDYWGQGTQVTVSS	high polyreactivity
QVQLVESGGGLVQAGGSLRLSCAASGFIFSHYAMGWYRQAPGKERELVAAIRSGGTTNYADSVKGRFTISRDNAKHTVYLQMNSLKPEDTAVYYCAASSRRSWTYDYWGQGTQVTVSS	high polyreactivity
QVQLVESGGGLVQAGGSLRLSCAASGFIFSIYAMGWYRQAPGKERELVAAISKSGGRTYYADSVKGRFTISRDNAKNTVYLQMNSLKPEDTAVYYCAVDPYYKYDYWGQGTQVTVSS	high polyreactivity
QVQLVESGGGLVQAGGSLRLSCAASGFIFSNYAMGWYRQAPGKERELVAAISWSGGNTYYADSVKGRFTISRDNAKNTFYLQMNSLKPEDTAVYYCNRVKAYYRWFLPRYQYNYWGQGTQVTVSS	high polyreactivity
QVQLVESGGGLVQAGGSLRLSCAASGFIFSPYAMGWYRQAPGKERELVAAISSGVGTRTYYADSVKGRFTISRDNAKNNVYLQINSLKPEDTAVYYCAARIPAWRAAERGGYWGQGTQVTVSS	high polyreactivity
QVQLVESGGGLVQAGGSLRLSCAASGFIFSRNVMGWYRQAPGKERELVAAISRSGGSTYYADSVKGRFTISRDNAKNTVYLQMNSLKTEYTAVYYCAASRINNVYLLKGDYWGQGTQVTVSS	high polyreactivity
QVQLVESGGGLVQAGGSLRLSCAASGFIFSRYAMGWYRQAPGKERELVAAINLSGTSTYYADSVKGRFTISRDNAKNTVYLQMNSLKPEDTAVYYCAATSSYIYPYGYWGQGTQVTVSS	high polyreactivity
QVQLVESGGGLVQAGGSLRLSCAASGFIFSRYAMGWYRQAPGKERELVAAISDYGGRTYYADSVKGRFTISRDNAKNTVYLQMNSLKPEDTAVYYCAADLEGYYPYEYWGQGTKVTVSS	high polyreactivity
QVQLVESGGGLVQAGGSLRLSCAASGFIFSRYAMGWYRQAPGKERELVAAISRGGSTYYADYVKGRFTISRDNAKNTVYLQMNSLKPEDTAVYYCAVRQIVRYYYWGQGTQVTVSS	high polyreactivity
QVQLVESGGGLVQAGGSLRLSCAASGFIFSRYAMGWYRQAPGKERELVAAISSGGRTNYADSVKGRFTISRDNAKNTVYLQMNSLKPEDTAVYFCAALLRGRSGQFEYDYWGQGTQVTVSS	low polyreactivity
QVQLVESGGGLVQAGGSLRLSCAASGFIFSRYGMGWYRQAPGKERELVAAISRTGGSTYYADSVKGRFTISRDNAKNTVYFQMNSLKPEDTAVYYCATAYSWRNADWFAYSYDYWGQGTQVTVSS	low polyreactivity
QVQLVESGGGLVQAGGSLRLSCAASGFIFSRYVMGWYRQAPGKEREFVAAISSSGGSTYYADSVKGRFTISRDNAKNTVYLQMNSLKPEDTAVYYCATRLGRYYRVGFDYWGQGNQVTVSS	high polyreactivity
